Molecular target: BpGH94MLG, glycoside (cellodextrin) phosphorylase of CAZy family GH94 from Blautia producta ATCC 27340 (Blautia producta ATCC 27340)
Test: crystal structure; crystal structure of recombinant BpGH94MLG at 2.3 Å; two copies per asymmetric unit; crystallisation methods not shown (supplement)

## BpGH94MLG, glycoside (cellodextrin) phosphorylase of CAZy family GH94 from Blautia producta ATCC 27340 (enzyme)
  stoichiometry N: 2

Source: publication PMC10318527, “Utilization of dietary mixed-linkage β-glucans by the Firmicute Blautia producta” (The Journal of Biological Chemistry, 2023)
